We go through 1 molecule from article PMC5789026, “mRNA Processing Factor CstF-50 and Ubiquitin Escort Factor p97 Are BRCA1/BARD1 Cofactors Involved in Chromatin Remodeling during the DNA Damage Response” (Molecular and Cellular Biology, 2017).

In one assay the target is T1, His-Ub (UniProt P0CG48 1-76).
T1 construct: ubiquitin (Ub), the cut product of its precursor; also called ubiquitin; source: E. coli BL21, purified (Ni-agarose)
The assay can be described thus: pull-down; interaction assay with His-Ub and GST-CstF-50 as described previously (ref. 5); pellets and supernatants analysed by immunoblotting under denaturing PAGE. As to conditions: both partners purified.

The target of assay [1] is T2, ΔBRCA1/BARD1-wt heterodimeric complex (truncated BRCA1 residues 1 to 304 and full-length BARD1) (UniProt P38398 1-304; Q99728 1-777).
T2 construct: truncated BRCA1 spanning the RING domain, residues 1 to 304; full-length BARD1, wild type; also called BRCA1/BARD1 heterodimer
The assay can be described thus: pull-down; ΔBRCA1/BARD1 (wt or Q564H) incubated with GST-CstF-50 and/or His-p97, immunoprecipitated with anti-BARD1 or preimmune sera; washes with buffer A (PBS, 0.01% Nonidet P-40, 0.04% BSA) including 300 mM NaCl; Western blot. The note with it: both partners purified. For orientation: In western blotting, separated proteins are transferred to a membrane and probed.

T2 sequence (P38398 1-304, stated change not applied, chain 1 of 2): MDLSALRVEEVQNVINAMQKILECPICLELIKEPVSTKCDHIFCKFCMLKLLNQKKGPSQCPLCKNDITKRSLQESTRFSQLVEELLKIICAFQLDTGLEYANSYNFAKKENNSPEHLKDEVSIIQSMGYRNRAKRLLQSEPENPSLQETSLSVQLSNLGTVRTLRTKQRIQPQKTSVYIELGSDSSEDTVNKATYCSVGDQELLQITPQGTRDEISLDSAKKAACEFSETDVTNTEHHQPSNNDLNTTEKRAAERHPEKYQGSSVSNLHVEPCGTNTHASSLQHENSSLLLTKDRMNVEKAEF
T2 sequence (Q99728 whole entry, stated change not applied, chain 2 of 2, the tested form may be a part): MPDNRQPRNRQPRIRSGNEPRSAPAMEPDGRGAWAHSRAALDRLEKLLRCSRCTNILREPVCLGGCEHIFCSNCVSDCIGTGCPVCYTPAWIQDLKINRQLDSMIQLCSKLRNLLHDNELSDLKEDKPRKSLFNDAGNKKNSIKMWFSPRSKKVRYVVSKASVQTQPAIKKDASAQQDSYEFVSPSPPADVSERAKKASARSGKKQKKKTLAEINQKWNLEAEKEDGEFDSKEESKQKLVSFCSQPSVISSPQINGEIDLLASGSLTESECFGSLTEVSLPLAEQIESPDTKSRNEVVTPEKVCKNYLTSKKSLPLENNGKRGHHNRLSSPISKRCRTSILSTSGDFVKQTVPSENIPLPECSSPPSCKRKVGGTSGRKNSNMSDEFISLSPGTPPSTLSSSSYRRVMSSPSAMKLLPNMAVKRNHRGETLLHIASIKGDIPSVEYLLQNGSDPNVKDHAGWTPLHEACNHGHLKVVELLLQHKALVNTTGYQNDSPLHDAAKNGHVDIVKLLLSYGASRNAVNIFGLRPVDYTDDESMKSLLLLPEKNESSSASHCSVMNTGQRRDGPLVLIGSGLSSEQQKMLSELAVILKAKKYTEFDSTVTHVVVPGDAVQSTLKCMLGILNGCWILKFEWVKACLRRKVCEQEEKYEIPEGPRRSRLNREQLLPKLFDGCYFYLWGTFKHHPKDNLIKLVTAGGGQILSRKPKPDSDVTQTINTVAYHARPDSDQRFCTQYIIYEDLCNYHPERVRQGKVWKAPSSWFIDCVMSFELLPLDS

B1: GST-CstF-50 (natural protein, UniProt Q05048 1-431, looked up)
chain: MYRTKVGLKDRQQLYKLIISQLLYDGYISIANGLINEIKPQSVCAPSEQLLHLIKLGMENDDTAVQYAIGRSDTVAPGTGIDLEFDADVQTMSPEASEYETCYVTSHKGPCRVATYSRDGQLIATGSADASIKILDTERMLAKSAMPIEVMMNETAQQNMENHPVIRTLYDHVDEVTCLAFHPTEQILASGSRDYTLKLFDYSKPSAKRAFKYIQEAEMLRSISFHPSGDFILVGTQHPTLRLYDINTFQCFVSCNPQDQHTDAICSVNYNSSANMYVTGSKDGCIKLWDGVSNRCITTFEKAHDGAEVCSAIFSKNSKYILSSGKDSVAKLWEISTGRTLVRYTGAGLSGRQVHRTQAVFNHTEDYVLLPDERTISLCCWDSRTAERRNLLSLGHNNIVRCIVHSPTNPGFMTCSDDFRARFWYRRSTTD
notes: CstF-50 (cleavage stimulation factor 50), recombinant; also called glutathione S-transferase (GST)-CstF-50; source: E. coli BL21, purified (glutathione-agarose)
Turning to B1, the binding result (with His-Ub; in assay [1]) was “binds” in each case.
